Positions count from the first letter of the chain named. Names may count otherwise.
B1: subtilisin BPN′ (protein)
chain: AQSVPYGVSQIKAPALHSQGYTGSNVKVAVIDSGIDSSHPDLKVAGGASMVPSETNPFQDNNSHGTHVAGTVAALNNSIGVLGVAPSASLYAVKVLGADGSGQYSWIINGIEWAIANNMDVINMSLGGPSGSAALKAAVDKAVASGVVVVAAAGNEGTSGSSSTVGYPGKYPSVIAVGAVDSSNQRASFSSVGPELDVMAPGVSIQSTLPGNKYGAYNGTSMASPHVAGAAALILSKHPNWTNTQVRSSLENTTTKLGDSFYYGKGLINVQAAAQ
B2: Y217L variant of subtilisin BPN′ (protein)
chain: B1 chain with Y217L
B3: M73P D83C SSI (protein)
chain: AGEFDAPSALYAPSALVLTVGKGVSATTAAPERAVTLTCAPGPSGTHPAAGSACADLAAVGGDLNALTRGEDVMCPPVYDPVLLTVCGVWQGKRVSYERVFSNECEMNAHGSSVFAF

Columns and labels:
[1] = molecular target: T1, Streptomyces Subtilisin Inhibitor (SSI), SSI-like protein produced by PG1181
T1 chain: B3 chain with P77M, C87D

[2] = molecular target: protease (not named in the Ki determination); test: enzyme inhibition kinetics with succinyl-Ala-Ala-Pro-Phe-p-nitroanilide in 50 mM Tris pH 8; steady-state rate against the rate without inhibitor; equations of Goldstein

| Binder | protease activity (hydrolysis of N-succinyl-Ala-Ala-Pro-Phe-p-nitroanilide, increase in absorbance at 410 nm) [1] | Ki [2] |
| --- | --- | --- |
| B1 | SSI inhibits subtilisin BPN′ and a Y217L variant of BPN′ |  |
| B2 | SSI inhibits subtilisin BPN′ and a Y217L variant of BPN′ |  |
| B3 |  | 3 nM |

Reference: patent US6579698
